Patent US20060029546A1, “Materials and methods for identifying anti-schizophrenic agents” (deCODE Genetics, Inc., priority 2004, published 2006)

Tests used:
MAPK p44/42 = MAPK p44/42 activation in HEK293 cells stably expressing ErbB4 and Fyn-V5; assay type: cell-based; conditions: 7.2 nM NRG1 for 10 minutes
Pyk2 = Pyk2 Tyr402 phosphorylation in differentiated BE(2)-M17 neuroblastoma cells; assay type: cell-based, human; conditions: stimulation for 10 minutes
Experimental: (§1) Studies were carried out to determine if NRG1 signaling, mediated by activation of Src-family kinases, results in changes in the phosphorylation state of regulatory tyrosine residues on NR2B. BE(2)-M 17 human neuroblastoma cells (ECACC No. 95011816) have a neuron-like appearance after differentiation for 72 hours in the presence of 10 μM retinoic acid (RA; Sigma, St. Louis, Mo.) (Hanada et al., Can. Res. 53: 4978-4986, 1993). […] As RA differentiation induces NR2B, but not NR2A, expression, it was expected that the functional NMDA receptor channels expressed in these cells comprised of NR1 and NR2B subunits. Stimulation of differentiated BE(2)-M17 cells with NRG1 for 10 minutes increased ErbB4 tyrosine phosphorylation (FIG. 2), increased Fyn/Src Tyr420 phosphorylation (indicative of increased Src-family kinase activity), and increased Pyk2 Tyr402 phosphorylation. Pyk2 Tyr402 is an auto-phosphorylation site involved in Src-family kinase recruitment (Dikic et al., Nature 383: 547-550, 1996). In addition, a coincident increase in NR2B Tyr1472 phosphorylation was also observed (FIG. 2). Thus, NRG1 signaling through ErbB4 modulates NR2B tyrosine phosphorylation in neuroblastoma cells.

ErbB4 [1] = assay: ErbB4 tyrosine phosphorylation in HEK293 cells (Western blot); assay type: cell-based; conditions: HEK293 cells expressing ErbB4 and Fyn-V5, 7.2 nM NRG1 for 10 minutes
Experimental: (§2) To determine whether NRG1-induced activation of ErbB4 leads to Fyn phosphorylation, NRG1 exposure of HEK293 cells stably expressing ErbB4 and Fyn-V5 were activated with 7.2 nM NRG1 (R&D Systems; Minneapolis, Minn.) for 10 minutes and lysed using RIPA buffer. […] There was no change in Fyn Tyr531 phosphorylation. […] Fyn is activated either by dephophorylation of Tyr531 with loss of the SH2 domain interaction, or through displacement of the SH2 domain by a second tyrosine phosphorylated binding partner allowing auto-phosphorylation on the Fyn activation loop residue Tyr420. Alternatively, Fyn can be phosphorylated on Tyr420 and activated directly by a second kinase. Thus, the NRG1-stimulated increase in Fyn Tyr420 phosphorylation may be through stimulation of Fyn auto-phosphorylation, through phosphorylation of Fyn by ErbB4, or through phosphorylation of Fyn by an ErbB4 activated tyrosine kinase other than Fyn.
Thus, NRG1-induced ErbB4 phosphorylation under conditions in which Fyn and related Src-family kinases were inhibited by PP2 (selective Src-family kinase inhibitor described above). […] This may result in the creation of additional SH2 domain docking sites, thus leading to further activation of Fyn as part of a positive feedback mechanism involving NRG1, ErbB4 and Src-family kinases.

[2] = test system: NMDA receptor NR2B subunit; assay: NR2B tyrosine phosphorylation in SK-N-BE(2)-M17 cells grown with retinoic acid; assay type: cell-based; conditions: immunoprecipitation, anti-phosphotyrosine Western blot
Experimental: To determine if D150838 modulates tyrosine phosphorylation of the NMDA receptor, SK-N-BE(2)-M17 cells were grown for 72 house in the presence of retinoic acid to induce expression of the NMDA receptor NR2B subunit. The cells were contacted with NRG1 or D150838, the NR2B subunit was immunoprecipitated, and the level of tyrosine phosphorylation was detected by Western blot analysis with an anti-phosphotyrosine antibody. […] Phosphorylation of tyrosine residue 1472 was detected after exposure to D150838.

NR2B = NR2B Tyr1472 phosphorylation in differentiated BE(2)-M17 neuroblastoma cells; assay type: cell-based, human; conditions: stimulation for 10 minutes
Experimental: as §1

Fyn [3] = assay: Fyn phosphorylation in HEK293 cells stably expressing ErbB4 and Fyn-V5 (Western blot); assay type: cell-based
Fyn, sequence (P06241 whole entry, species assumed): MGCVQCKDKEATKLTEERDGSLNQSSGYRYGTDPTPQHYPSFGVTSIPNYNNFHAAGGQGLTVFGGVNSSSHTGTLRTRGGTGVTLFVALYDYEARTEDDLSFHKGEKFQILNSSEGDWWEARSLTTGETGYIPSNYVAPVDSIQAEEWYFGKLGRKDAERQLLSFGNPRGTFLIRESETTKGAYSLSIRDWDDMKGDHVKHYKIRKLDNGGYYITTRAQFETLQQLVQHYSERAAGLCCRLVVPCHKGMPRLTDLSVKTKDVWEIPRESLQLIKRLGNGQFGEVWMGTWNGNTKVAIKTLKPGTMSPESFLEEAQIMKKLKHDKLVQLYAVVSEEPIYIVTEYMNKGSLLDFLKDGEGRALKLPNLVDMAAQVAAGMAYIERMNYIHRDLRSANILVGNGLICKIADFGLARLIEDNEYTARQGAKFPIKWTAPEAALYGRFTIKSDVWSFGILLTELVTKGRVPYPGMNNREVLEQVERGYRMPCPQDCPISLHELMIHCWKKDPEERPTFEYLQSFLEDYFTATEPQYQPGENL
Experimental: as §2
These alternatives were distinguished by applying PP2 (25 nM; Calbiochem, San Diego, Calif.) a relatively selective Src-family kinase inhibitor, to inhibit Fyn while ErbB4 signaling was stimulated with NRG1. […] Fyn was phosphorylated at a low level on Tyr420 under basal conditions. […] After NRG1 stimulation, an increase in Fyn Tyr420 phosphorylation was seen, even under conditions in which PP2 was used to inhibit p59 Fyn autophosphorylation. […] Thus, ErbB4 or an ErbB4 activated tyrosine kinase may phosphorylate Fyn on Tyr420 in response to NRG1 stimulation and activate the kinase directly.

Fyn/Src = Fyn/Src Tyr420 phosphorylation in differentiated BE(2)-M17 neuroblastoma cells; assay type: cell-based, human; conditions: stimulation for 10 minutes
Experimental: as §1

ErbB4 [4] = assay: ErbB4 tyrosine phosphorylation and kinase activity in CHO-K1 cells expressing ErbB4; assay type: cell-based
Experimental: The initial step of NRG1 signaling is activation of ErbB4 kinase activity and auto-phosphorylation on tyrosine residues. An increase in ErbB4 tyrosine phosphorylation and associated kinase activity was observed when CHO-K1 cells (ECACC Accession No. 85051005) expressing ErbB4 were exposed to NRG1 (recombinant human HRG-αEGF domain; R&D Systems, Minneapolis, Minn.) in serum free medium for 0-15 minutes. Following immunoprecipitation of ErbB4, kinase activity was measured using a peptide substrate. Maximum ErbB4 kinase activity was detected within 1 minute of NRG1 exposure but returned to the pre-stimulation level by 15 minutes.
Target sequence in this assay (Q15303 26-1308): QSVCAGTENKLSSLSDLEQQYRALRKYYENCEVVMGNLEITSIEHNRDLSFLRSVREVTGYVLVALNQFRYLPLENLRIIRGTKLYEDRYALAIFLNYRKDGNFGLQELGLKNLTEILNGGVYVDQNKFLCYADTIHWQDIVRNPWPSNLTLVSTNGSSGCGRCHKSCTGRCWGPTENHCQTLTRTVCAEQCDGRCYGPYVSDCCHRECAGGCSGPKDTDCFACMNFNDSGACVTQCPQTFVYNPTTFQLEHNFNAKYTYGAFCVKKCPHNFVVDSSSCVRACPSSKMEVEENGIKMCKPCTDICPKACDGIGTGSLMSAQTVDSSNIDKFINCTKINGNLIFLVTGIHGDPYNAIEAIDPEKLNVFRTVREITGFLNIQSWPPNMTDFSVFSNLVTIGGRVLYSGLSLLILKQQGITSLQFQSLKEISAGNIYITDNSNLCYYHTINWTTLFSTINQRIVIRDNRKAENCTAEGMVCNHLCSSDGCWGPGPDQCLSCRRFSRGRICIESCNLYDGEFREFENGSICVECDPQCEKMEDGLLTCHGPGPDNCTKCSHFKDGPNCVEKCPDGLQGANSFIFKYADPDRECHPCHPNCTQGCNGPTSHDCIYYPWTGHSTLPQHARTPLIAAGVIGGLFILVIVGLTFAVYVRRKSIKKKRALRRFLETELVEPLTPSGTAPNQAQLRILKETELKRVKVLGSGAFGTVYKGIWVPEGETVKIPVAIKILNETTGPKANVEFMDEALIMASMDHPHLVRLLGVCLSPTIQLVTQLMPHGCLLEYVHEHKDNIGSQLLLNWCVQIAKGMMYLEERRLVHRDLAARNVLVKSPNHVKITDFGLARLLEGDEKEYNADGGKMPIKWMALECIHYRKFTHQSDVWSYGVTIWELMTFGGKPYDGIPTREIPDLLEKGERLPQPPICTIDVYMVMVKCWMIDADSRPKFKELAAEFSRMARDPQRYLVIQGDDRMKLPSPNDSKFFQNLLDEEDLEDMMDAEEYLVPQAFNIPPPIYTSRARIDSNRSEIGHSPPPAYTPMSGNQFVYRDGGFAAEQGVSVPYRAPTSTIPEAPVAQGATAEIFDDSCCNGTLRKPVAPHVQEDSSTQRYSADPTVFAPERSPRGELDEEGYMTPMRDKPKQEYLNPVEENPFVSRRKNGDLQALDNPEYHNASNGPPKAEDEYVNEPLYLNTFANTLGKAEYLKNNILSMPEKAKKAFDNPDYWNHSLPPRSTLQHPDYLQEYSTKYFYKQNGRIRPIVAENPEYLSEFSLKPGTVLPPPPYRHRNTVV

[5] = test system: MAPK pathway (serum response element luciferase reporter); assay: SRE-luciferase reporter gene assay in CHO-K1 cells expressing ErbB4 or ErbB4 and Fyn; assay type: cell-based
Experimental: CHO-K1 cells expressing only ErbB4 were constructed, and subsequently a subclone co-expressing Fyn was identified. The parental ErbB4 expressing cell line and the subclone co-expressing ErbB4 and Fyn continued to express similar levels of ErbB4 as shown by Western blot. The cells also contained a reporter gene sensitive to MAPK pathway activation, the luciferase gene under the control of a promoter containing a serum response element (SRE). The cells were activated for 4 hours with 0-57.6 nM and the luciferase assay was performed using the Dual-Luciferase Reported assay system (Promega, Madison, Wis.) according to the manufacturer's instructions. Induction of the luciferase reporter gene by NRG1 was amplified two-fold (p<0.05) in cells co-expressing ErbB4 and Fyn as compared to cells expressing only ErbB4. No significant differences in baseline luciferase activity or in NRG1 EC50 (˜1 nM) were found between the two cell lines.

ErbB4 [6] = biological target: T1, ErbB4 (Homo sapiens, UniProt Q15303); assay: ErbB4 tyrosine phosphorylation in differentiated BE(2)-M17 neuroblastoma cells; assay type: cell-based; conditions: stimulation for 10 minutes
T1 construct: host or cells: BE(2)-M17 neuroblastoma, retinoic-acid differentiated
T1 sequence (Q15303 26-1308): as above
Experimental: as §1

Fyn [7] = assay: Fyn kinase activity after NRG1 stimulation of cells; assay type: cell-based
Experimental: To test if the observed increase in Fyn Tyr420 phosphorylation was associated with enhanced catalytic activity, Fyn kinase activity was measured after NRG1 stimulation. Fyn kinase activity was increased within 5 minutes of NRG1 stimulation, reached maximum activity after 7 minutes, and returned to pre-stimulation levels within 15 minutes.

B1: NRG1: recombinant human HRG-αEGF domain; R&D Systems; polypeptide growth factor Neuregulin 1 (protein)
chain: SHLVKCAEKEKTFCVNGGECFMVKDLSNPSRYLCKCQPGFTGARCTENVPMKVQNQEKAEELYQK
How did the “MAPK p44/42 Thr202/Tyr204 phosphorylation” value (MAPK p44/42) turn out when B1 was run?
The value was “increase”.

What about the “Pyk2 Tyr402 phosphorylation” value (Pyk2) of the same molecule?
Its value is “increased”.

And the ErbB4 tyrosine phosphorylation (ErbB4 [1])?
Its ErbB4 tyrosine phosphorylation is “tyrosine phosphorylation of ErbB4”.

And the “tyrosine phosphorylation of the NR2B subunit” value [2]?
The value was “induced tyrosine phosphorylation”.

What about the “NR2B Tyr1472 phosphorylation” value (NR2B) of the same molecule?
The value was “increase”.

And the “Fyn Tyr420 phosphorylation” value (Fyn [3]; 7.2 nM NRG1 for 10 minutes)?
Its value is “phosphorylation of Fyn on Tyr420”.

And the “Fyn Tyr531 phosphorylation” value (Fyn [3]; 7.2 nM NRG1 for 10 minutes)?
Its value is “no change”.

What about the “Fyn Tyr420 phosphorylation after NRG1 stimulation with PP2 present” value (Fyn [3]; PP2 used to inhibit Fyn autophosphorylation) of the same molecule?
Its value is “increase”.

And the “Fyn/Src Tyr420 phosphorylation” value (Fyn/Src)?
The value was “increased”.

What about the “time of return of ErbB4 kinase activity to pre-stimulation level” value (ErbB4 [4]; after NRG1 exposure) of the same molecule?
The value was no more than 15 min.

What about the “time to maximum ErbB4 kinase activity” value (ErbB4 [4]; after NRG1 exposure) of the same molecule?
The value was no more than 1 min.

And the “ErbB4 tyrosine phosphorylation and associated kinase activity” value (ErbB4 [4]; serum free medium, 0-15 minutes)?
Its value is “increase”.

What about the EC50 ([5]; 4 hours, 0-57.6 nM, no significant difference between the two cell lines, read-out: EC50, luciferase reporter induction) of the same molecule?
The EC50 was roughly 1 nM.

And the “amplification of luciferase reporter induction in cells co-expressing ErbB4 and Fyn compared to cells expressing only ErbB4” value ([5]; p<0.05)?
The value was “two-fold”.

What about the ErbB4 tyrosine phosphorylation (ErbB4 [6]) of the same molecule?
The ErbB4 tyrosine phosphorylation was “increased”.

What about the “time of maximum Fyn kinase activity” value (Fyn [7]; after NRG1 stimulation) of the same molecule?
Its value is 7 min.

And the “time of return of Fyn kinase activity to pre-stimulation levels” value (Fyn [7]; after NRG1 stimulation)?
Its value is no more than 15 min.

What about the “time to increased Fyn kinase activity” value (Fyn [7]; after NRG1 stimulation) of the same molecule?
Its value is no more than 5 min.

And the Fyn kinase activity (Fyn [7]; cells co-expressing Fyn and catalytically inactive ErbB4 D843A mutant)?
Its Fyn kinase activity is “No increase”.
